From PMC9233695, “Structural mechanism of protein recognition by the FW domain of autophagy receptor Nbr1” (Nature Communications, 2022)

How the values were obtained:
[1] = molecular target: GST-CtNbr1(635–775) (Chaetomium thermophilum); assay: SPR; Biacore T200, 25 °C; GST-FW domain captured by anti-GST antibody on a CM5 chip to about 200 RU; CtAms1 protein flowed, 50 to 1.56 nM; 10 mM HEPES pH 7.4, 150 mM NaCl, 0.05% Tween 20; 1:1 binding model
[2] = molecular target: GST-CtNbr1(635–775) (Chaetomium thermophilum); assay: SPR; Biacore T200, 25 °C; GST-FW domain captured by anti-GST antibody on a CM5 chip to about 700 RU; synthetic peptide flowed, 100 to 3.13 μM; 10 mM HEPES pH 7.4, 150 mM NaCl, 0.05% Tween 20; steady-state model
[3] = molecular target: GST-hNBR1(358-498) (human) (UniProt Q14596); assay: as above
Sequence of GST-hNBR1(358-498) (human) (Q14596 358-498): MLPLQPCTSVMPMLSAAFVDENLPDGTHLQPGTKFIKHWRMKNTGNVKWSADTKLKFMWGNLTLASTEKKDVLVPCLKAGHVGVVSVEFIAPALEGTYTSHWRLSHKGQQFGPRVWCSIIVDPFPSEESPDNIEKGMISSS

[4] = molecular target: the molecule itself; assay: cryo-EM structure; CtAms1-CtNbr1 FW-MBP fusion protein, 2.2 Å, D2 symmetry
CtNbr1-FW-D654E = assay: Pil1 co-tethering assay, CtAms1 and mutants with CtNbr1 FW domain D654E; format: cell-based, Chaetomium thermophilum; details: CtNbr1-FW-D654E fused to Pil1-mCherry, CtAms1-mECitrine or mutants, in S. pombe, 30 °C; two independent experiments
Description: (§1) Fig. 4 Mutational analysis of interactions between CtAms1 and CtNbr1-FW. a–c Pil1 co-tethering assay. CtNbr1 FW domain and its mutants were fused to Pil1-mCherry and co-expressed with CtAms1-mECitrine or its mutants in S. pombe. Cells were imaged by fluorescence microscopy. Bar, 3 μm. The data shown are representative of two independent experiments with similar results. Source data are provided as a Source Data file. d SPR analysis of the CtNbr1-CtAms1 interaction. GST-tagged CtNbr1 FW domain or its mutants was bound to a CM5 sensor chip. CtAms1 or CtAms1-G2A (twofold serial dilutions from 50 nM to 1.56 nM) flowed through the chip surface. The experiments were performed once. e SPR analysis of the interactions of CtNbr1 and hNBR1 with CtAms1 N-terminal peptides. GST-tagged CtNbr1 FW domain or hNBR1 FW domain was bound to a CM5 sensor chip. Chemically synthesized CtAms1 N-terminal peptides (twofold serial dilutions from 100 μM to 3.13 μM) flowed through the chip surface. […]
(§2) Fission yeast cells were grown to mid-log phase in EMM medium at 30 °C. […] Images were obtained with a 100 × 1.4NA objective and analyzed with the SoftWoRx software.
(§3) To examine a pair-wise protein-protein interaction, a bait protein was fused to Pil1-mCherry, and a prey protein was fused to mECitrine. Cells co-expressing both proteins were grown to mid-log phase in EMM medium at 30 °C for fluorescence microscopy. […]

CtNbr1 = assay: Pil1 co-tethering assay, candidate cargo proteins with CtNbr1; format: cell-based, Chaetomium thermophilum; details: Pil1-mCherry-CtNbr1 bait, mECitrine prey, co-expressed in S. pombe, EMM medium, 30 °C; fluorescence microscopy; two independent experiments
Description: To investigate whether this receptor-cargo relationship is conserved in C. thermophilum, we examined whether CtNbr1 interacts with the Ct homologs of NVT cargo proteins using an imaging-based Pil1 co-tethering assay. In this assay, CtNbr1 was fused to the C-terminus of the Pil1-mCherry fusion protein, which localizes to distinctive filamentary structures. A cargo protein of interest was fused to the N-terminus of fluorescent protein mECitrine. The two proteins were co-expressed in S. pombe and if they interact with each other, co-localization on filamentary structures would be observed. […] To map which domain is responsible for binding CtAms1, a series of CtNbr1 fragments were analyzed (Fig. 1b).
Plasmids expressing proteins with mECitrine/mCherry/GFP tags under the control of Pnmt1 or P41nmt1 promoter were constructed using modified pDUAL vectors. […]
as §2, §3

S. pombe cells = assay: Localization / vacuolar entry of CtAms1-mCherry in S. pombe; format: cell-based, Schizosaccharomyces pombe
Description: Fig. 5 CtNbr1 mediates vacuolar targeting of CtAms1 via conventional autophagy machinery in S. pombe. a CtNbr1 interacts with SpAtg8 in Pil1 co-tethering assay. SpAtg8(1−115), which lacks the G116 residue required for lipidation, was fused to Pil1-mCherry and co-expressed with mECitrine-tagged CtNbr1 in S. pombe. Pil1-mCherry served as a negative control. Cells were observed by fluorescence microscopy. Bar, 3 μm. b CtNbr1 can enter the vacuole through autophagy in nitrogen-starved S. pombe cells. CtNbr1-mCherry was expressed in wild-type and atg5Δ cells. SpCpy1-Venus was used as a vacuole lumen marker. Cells were collected before (0 h) and 8 h after nitrogen starvation (-N) and examined by fluorescence microscopy. […] C-terminally mCherry-tagged CtAms1, CtAms1-G2A, and CtAms1-G3A were individually co-expressed with untagged CtNbr1 in wild-type S. pombe cells. CtAms1-mCherry alone expressed in wild-type cells served as a negative control. CtAms1-mCherry was also co-expressed with untagged CtNbr1 in atg5Δ cells. Cells were collected before (0 h) and 3 h after nitrogen starvation and were examined by fluorescence microscopy. Bar, 3 μm. The data shown are representative of two independent experiments with similar results. Source data are provided as a Source Data file.
Plasmids expressing mECitrine- or mCherry-tagged CtNbr1 under the control of the P41nmt1 promoter and plasmids expressing mCherry-tagged CtAms1 under the control of the P41nmt1 promoter were constructed using modified stable integration vectors. Plasmids were linearized by NotI digestion and integrated at the ura4 or ade6 locus of the S. pombe genome.
Fission yeast cells were grown to mid-log phase in EMM medium at 30 °C. Microscopy was performed using the DeltaVision PersonalDV system (Applied Precision) equipped with a mCherry/YFP filter set (Chroma 89006 set) and a Photometrics Evolve 512 EMCCD camera. Images were obtained with a 100 × 1.4NA objective and analyzed with the SoftWoRx software.

CtNbr1-FW = assay: SPR analysis of CtNbr1-FW with CtAms1 protein; design: species or system Chaetomium thermophilum; details: Biacore T200, 25 °C, GST-CtNbr1(635–775) captured by anti-GST on CM5 chip, about 200 RU, 10 mM HEPES, pH 7.4, 150 mM NaCl, 0.05% Tween 20, CtAms1 protein 50 to 1.56 nM twofold dilutions, 1:1 binding model, performed once, read-out: dissociation constant (KD)
Description: as §1
(§4) Wild-type and mutant forms of GST-CtNbr1(635–775) and wild-type GST-hNBR1(358-498) were purified from E. coli, and FLAG2-His6 (FFH)-tagged CtAms1 and CtAms1-G2A were purified from S. pombe. […] The dissociation constants (KD) were calculated by fitting the sensorgrams to a 1:1 binding model (for protein–protein interaction) or a steady-state model (for protein-peptide interaction) using Biacore T200 evaluation software.

CtNbr1-FW-W763A = assay: SPR analysis of CtNbr1-FW-W763A with CtAms1 protein; format: binding, Chaetomium thermophilum; details: Biacore T200, 25 °C, GST-CtNbr1 FW W763A mutant captured on CM5 chip, about 200 RU, 10 mM HEPES, pH 7.4, 150 mM NaCl, 0.05% Tween 20, CtAms1 50 to 1.56 nM, performed once
Description: as §1, §4

CtNbr1-FW-D654A = assay: SPR analysis of CtNbr1-FW-D654A with CtAms1 protein; format: binding, Chaetomium thermophilum; details: Biacore T200, 25 °C, GST-CtNbr1 FW D654A mutant captured on CM5 chip, about 200 RU, 10 mM HEPES, pH 7.4, 150 mM NaCl, 0.05% Tween 20, CtAms1 50 to 1.56 nM, performed once
Description: as §1, §4

Sequence of GST-CtNbr1(635–775) (Chaetomium thermophilum) (main, as listed by the source): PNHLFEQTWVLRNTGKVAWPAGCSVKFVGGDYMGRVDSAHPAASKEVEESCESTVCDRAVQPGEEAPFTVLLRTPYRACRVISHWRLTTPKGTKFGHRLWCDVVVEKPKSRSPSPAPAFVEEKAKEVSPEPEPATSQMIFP

FLAG2-His6 (FFH)-tagged CtAms1 (natural protein)
Kd [1]: 0.0034 µM

CtAms1(2–15) peptide
Kd [2]: 23 µM | Kd [3]: 110 µM

B1: CtAms1 in the CtAms1-CtNbr1 FW-MBP fusion protein (natural protein, Chaetomium thermophilum, UniProt G0SGP6 1-1079, looked up)
chain: MGGETFDVKGPRPNDYPLRAPKPVGQLISHIYKDRIAQFYNGGQYEHQNLRAMMKEDSVSGEPHVQLWVWHAPGQTRPSFEEAVSNQFVKTNVGEWFGPSWTTHWFRVVLTVPEHLQNKRLLEFHWDSNSEGLVWSEDGKPLQGLTGGGERVEWILPDSFRDGKEHTIYIEMACNRMFGNAPGGDSIQPPDPNKYFRLDKAEIVAIDPDARQLWIDIWILQDAAREFPGDSWESHKALQVCNEIIEAFELGNRESLKKCRKIAEQYLGPNVDSPNVYNSGKEPLVYAIGHCHIDSCWLWPFAETKRKVVRSWSSQCDLMDRYPELNFVCSQAQQYKWLKQLYPYAFERVKKKVAEGRFHPIGGSWVEHDTNMPSGESLVRQFLYGQRFYESNFGKRCKTFWLPDTFGYSAQLPQLCRLAGMTRFLTQKLSWNNINRFPHTTFNWVALDGSQVICHMPPSETYTAEAHFGDVKRSMSQHKSLDQDNTSLLVFGKGDGGGGPTWVQIEKLRRCRGISDTVGLLPRVHMGSSVDDFFDRLERKADTFVTWYGELYFELHRGTYTTQAKNKKNNRRAEAKLRDLELLATIASVQDKSYKYPKEEFDAMWENVLLCQFHDCLPGSSIEMAYRESDQMYADVFSTAEKIMKGVSQVLGLEPALNHMSTTNTVALNTLPWPRRELVKISEKEAAVAHGTGPFLKLQKLETTKPLVTLRQVTKGAFVLENSQLRVHVEKGVITSLYDKQANREVIPKGQKANQYVIFDDKPLYWQAWDVEVYHLDTRKELPSGETEVHENTPHRVSVVTRTKVSDKSHIQTIIALNGAVEGEQSWVEVQSKVDWHETMKFLKVEFPVDVRNTEASYETAFGIVRRPTHYNTSWDMAKFEVCAHRWADLSEYGYGVSILNDSKYGFATAGQTMRLSLLRSPKAPDAHADMGTHHIRWAILPHQGSLSHVTIRKAFEFNNPTKLYSSPDAAALVAAPPPVWLTPDSSPAIVLDTVKRGEDDEDVSRGELPARKGQSVILRMYDSLGGLARGTVVTTWPLKKVCKVNLLEDDLEVVPWENGRFTVELRPFEVASYRLVLA
notes: full-length Ams1 of Chaetomium thermophilum; the first methionine is processed (density map); model holds residues 2-1079; also called CtAms1_1; CtAms1_3; source: S. pombe (Pnmt1 promoter), fusion protein purified (GFP-Trap beads, released with 3C protease)
stoichiometry N [4]: 4

B2: CtAms1: Chaetomium thermophilum α-mannosidase Ams1 (CTHT_0067100) (protein)
chain: B1 chain
binding to D654E mutant of CtNbr1 FW domain (CtNbr1-FW-D654E): bound | interaction with CtNbr1 (CtNbr1): interacted | localization of CtAms1 expressed alone (S. pombe cells; no CtNbr1, nutrient-rich and nitrogen starvation (3 h), wild-type S. pombe, CtAms1-mCherry): diffuse cytoplasmic distribution | CtNbr1-dependent vacuolar entry (S. pombe cells; untagged CtNbr1 co-expressed, 3 h nitrogen starvation, atg5Δ S. pombe): abolished | vacuolar entry on co-expression of CtNbr1 (S. pombe cells; untagged CtNbr1 co-expressed, 3 h nitrogen starvation, wild-type S. pombe): vacuolar entry | cell periphery accumulation on co-expression of CtNbr1 (S. pombe cells; untagged CtNbr1 co-expressed, nutrient-rich conditions (0 h), wild-type S. pombe): cell periphery accumulation | Kd (CtNbr1-FW): 0.0034 µM | dissociation constant (KD) (CtNbr1-FW-W763A): No binding | dissociation constant (KD) (CtNbr1-FW-D654A): No binding
